Laboratory results from IntAct's records for PubMed 10545207.

B1: GTP-binding protein Rit2 (Mus musculus), P70425 (parent)
chain: MEVENEAHCCPGSSSGGSREYKVVMLGAGGVGKSAVTMQFISHQFPDYHDPTIEDAYKTQVRIDNEPAYLDILDTAGQAEFTAMREQYMRGGEGFIICYSVTDRQSFQEAAKFKELIFQVRHTYEIPLVLVGNKIDLEQFRQVSTEEGMNLARDYNCAFFETSAALRFGIDDAFQGLVREIRRKESMLSLVERKLKRKDSLWKKIKASLKKKRENML
partner: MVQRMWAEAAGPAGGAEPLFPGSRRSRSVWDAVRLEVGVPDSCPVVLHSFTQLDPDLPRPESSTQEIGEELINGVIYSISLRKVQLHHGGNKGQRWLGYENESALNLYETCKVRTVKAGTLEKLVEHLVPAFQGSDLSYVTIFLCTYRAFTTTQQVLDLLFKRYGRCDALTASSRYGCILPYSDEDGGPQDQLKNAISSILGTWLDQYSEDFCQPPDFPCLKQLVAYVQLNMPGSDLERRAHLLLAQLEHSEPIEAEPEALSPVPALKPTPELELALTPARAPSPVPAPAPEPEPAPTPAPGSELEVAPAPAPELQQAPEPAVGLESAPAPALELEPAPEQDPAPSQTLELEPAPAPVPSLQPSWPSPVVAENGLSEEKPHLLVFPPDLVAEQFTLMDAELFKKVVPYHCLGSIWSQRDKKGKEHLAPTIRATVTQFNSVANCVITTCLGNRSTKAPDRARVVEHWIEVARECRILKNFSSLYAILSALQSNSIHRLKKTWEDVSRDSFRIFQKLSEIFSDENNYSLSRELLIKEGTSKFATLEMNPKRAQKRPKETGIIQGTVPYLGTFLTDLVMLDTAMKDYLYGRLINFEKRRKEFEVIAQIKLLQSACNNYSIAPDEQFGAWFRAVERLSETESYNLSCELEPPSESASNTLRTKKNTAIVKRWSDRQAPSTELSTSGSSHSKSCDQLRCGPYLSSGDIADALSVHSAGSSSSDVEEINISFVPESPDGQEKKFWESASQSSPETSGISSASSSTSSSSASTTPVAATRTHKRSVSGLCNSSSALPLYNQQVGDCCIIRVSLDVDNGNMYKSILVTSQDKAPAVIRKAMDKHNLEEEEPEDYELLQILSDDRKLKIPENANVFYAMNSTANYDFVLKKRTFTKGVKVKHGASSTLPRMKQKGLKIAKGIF
B2: GTP-binding protein Rit2 (Mus musculus), P70425 (parent)
chain: B1 chain

Variants of: B1
Details: with gnds_human RALGDS

Row | Variant | effect of a mutation on the interaction
1 | S34N | decreasing interaction

Variants of: B2
Details: with rlf_human RLF

Row | Variant | effect of a mutation on the interaction
2 | S34N | decreasing interaction

Variants of: B2
Details: with afad_human AFDN

Row | Variant | effect of a mutation on the interaction
3 | S34N | decreasing interaction
